According to patent publication US20150140009A1:

Columns and labels:
[1] = target: TNF-α in conditioned medium of 1 Gy γ-irradiated mouse BM-derived EPCs (IR-CM) (mouse) (UniProt P06804); experiment: cell-based or functional assay
[2] = target: TNFR2/p75 on BM-derived EPCs of TNFR1/p55 knockout mice (mouse) (UniProt P25119); experiment: cell-based or functional assay
UniProt P25119, sequence (P25119 23-474): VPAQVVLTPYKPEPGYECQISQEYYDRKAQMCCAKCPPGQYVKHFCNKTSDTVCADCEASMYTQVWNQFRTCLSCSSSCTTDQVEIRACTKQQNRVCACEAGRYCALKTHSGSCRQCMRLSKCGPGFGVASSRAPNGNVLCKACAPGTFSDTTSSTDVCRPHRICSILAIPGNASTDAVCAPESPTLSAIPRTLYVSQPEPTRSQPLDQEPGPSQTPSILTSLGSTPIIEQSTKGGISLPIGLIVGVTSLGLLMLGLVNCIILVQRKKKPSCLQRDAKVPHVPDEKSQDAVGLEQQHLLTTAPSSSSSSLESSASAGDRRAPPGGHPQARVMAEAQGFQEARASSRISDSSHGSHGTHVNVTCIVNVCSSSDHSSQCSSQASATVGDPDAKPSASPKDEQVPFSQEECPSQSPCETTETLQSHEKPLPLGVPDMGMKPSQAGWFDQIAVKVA

UniProt P06804, sequence (P06804 80-235 limits assumed): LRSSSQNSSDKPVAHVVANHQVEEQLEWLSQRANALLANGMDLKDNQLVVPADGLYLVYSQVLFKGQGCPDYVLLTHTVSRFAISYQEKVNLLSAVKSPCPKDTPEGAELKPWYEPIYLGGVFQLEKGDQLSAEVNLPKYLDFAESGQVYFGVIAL

Substance: TNF-α neutralizing antibody (Cat. 506309, BioLegend)
- formation of p-H2AX foci in EPCs treated with γ-IR conditioned media after neutralizing TNF [1]: 2 fold
- mean p-H2AX foci/cell, naïve WT EPCs, 24 h treatment with 3-day IR-CM treated with TNF-α neutralizing antibody [1]: 3.2 foci/cell
- mean p-H2AX foci/cell, naïve WT EPCs, 24 h treatment with 5-day IR-CM treated with TNF-α neutralizing antibody [1]: 3.5 foci/cell
- mean p-H2AX foci/cell, naïve WT EPCs, 24 h treatment with 1 h IR-CM treated with TNF-α neutralizing antibody [1]: 2.4 foci/cell
- mean p-H2AX foci/cell, naïve WT EPCs, 24 h treatment with 5 h IR-CM treated with TNF-α neutralizing antibody [1]: 4.3 foci/cell
- mean p-H2AX foci/cell, naïve WT EPCs, 24 h treatment with 24 h IR-CM treated with TNF-α neutralizing antibody [1]: 5 foci/cell
- mean p-H2AX foci/cell, naïve p55KO EPCs, 24 h treatment with 3-day IR-CM treated with TNF-α neutralizing antibody [1]: 4.9 foci/cell
- mean p-H2AX foci/cell, naïve p55KO EPCs, 24 h treatment with 5-day IR-CM treated with TNF-α neutralizing antibody [1]: 3.5 foci/cell
- mean p-H2AX foci/cell, naïve p55KO EPCs, 24 h treatment with 1 h IR-CM treated with TNF-α neutralizing antibody [1]: 3.7 foci/cell
- mean p-H2AX foci/cell, naïve p55KO EPCs, 24 h treatment with 5 h IR-CM treated with TNF-α neutralizing antibody [1]: 3.6 foci/cell
- mean p-H2AX foci/cell, naïve p55KO EPCs, 24 h treatment with 24 h IR-CM treated with TNF-α neutralizing antibody [1]: 4.2 foci/cell

Substance: mouse recombinant TNF-α (Cat. 34-8321-82; eBiosciences) (from UniProt P06804 80-235) (ligand)
- mean p-H2AX foci/cell count, naïve p55KO EPCs, 24 h with TNF (100 pg/ml, 1, 40 ng/ml), all cells counted; control 0.98 [2]: 2.8 to 3.9 foci/cell
